In article PMC7753581 (The FASEB Journal, 2020):

Experiments:
[1] = molecular target: HLA I molecule A*02:01, purified; assay: radioligand binding
[2] = test system: CD8 T cells of peptide‐expanded PBMCs from A*02:01‐donors; assay: DimerX staining; assay type: cell-based, human; settings: Figure 5A; peptide‐stimulated PBMCs from A*02:01‐subject #14; representative experiment

## HRVC_(1791-1806) peptide
[1]
  IC50: 91 nM

## NTSAGFPYV [HRVC1798‐1806]
[2]
  percentage of CD8 T cells recognizing DimerX‐peptides within the total of gated‐CD8 T cells: 1.12%
